Key:
[1] = target: Grb2 SH2 (UniProt P62993); assay: SH2 binding enrichment of the phosphorylated peptide, bacterial display (enrichment ratio); higher = better substrate or ligand; peptides without Tyr show the background
[2] = target: c-Src SH2; assay: as above
[3] = target: SHP2-C SH2; assay: as above
[4] = target: FGFR1 (UniProt P11362); assay: phosphorylation enrichment, bacterial display (enrichment ratio); higher = better substrate or ligand; peptides without Tyr show the background
[5] = tested on: Fer (mouse); assay: as above
[6] = target: EPHB1 (UniProt P54762); assay: as above
Chain of EPHB1 (P54762 whole entry, looked up): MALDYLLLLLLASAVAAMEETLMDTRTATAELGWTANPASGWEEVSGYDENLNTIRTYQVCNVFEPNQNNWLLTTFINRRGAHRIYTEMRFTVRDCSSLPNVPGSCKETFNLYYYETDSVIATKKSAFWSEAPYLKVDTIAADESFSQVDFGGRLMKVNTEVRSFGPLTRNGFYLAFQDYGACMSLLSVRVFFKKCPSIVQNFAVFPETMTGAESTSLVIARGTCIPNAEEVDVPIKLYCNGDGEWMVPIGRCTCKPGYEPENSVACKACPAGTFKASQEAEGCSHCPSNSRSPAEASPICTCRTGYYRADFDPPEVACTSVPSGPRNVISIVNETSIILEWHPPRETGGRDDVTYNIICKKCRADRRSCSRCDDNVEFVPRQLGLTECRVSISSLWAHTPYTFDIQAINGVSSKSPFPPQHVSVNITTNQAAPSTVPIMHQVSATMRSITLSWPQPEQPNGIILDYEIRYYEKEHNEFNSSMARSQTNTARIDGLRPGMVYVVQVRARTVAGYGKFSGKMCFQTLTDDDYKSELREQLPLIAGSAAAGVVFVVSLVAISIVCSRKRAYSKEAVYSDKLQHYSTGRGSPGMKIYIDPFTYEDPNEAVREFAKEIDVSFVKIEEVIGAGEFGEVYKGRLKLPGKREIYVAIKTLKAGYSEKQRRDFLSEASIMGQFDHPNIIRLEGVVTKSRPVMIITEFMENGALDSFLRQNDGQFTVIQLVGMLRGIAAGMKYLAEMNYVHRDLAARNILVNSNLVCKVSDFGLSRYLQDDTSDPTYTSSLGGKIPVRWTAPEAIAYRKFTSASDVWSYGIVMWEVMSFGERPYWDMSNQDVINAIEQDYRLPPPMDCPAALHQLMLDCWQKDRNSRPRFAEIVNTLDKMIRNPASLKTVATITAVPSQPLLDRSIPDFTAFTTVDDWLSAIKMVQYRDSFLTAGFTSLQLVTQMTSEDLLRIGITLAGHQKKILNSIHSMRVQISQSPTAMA

[7] = target: FGFR3 (UniProt P22607); assay: as above
Chain of FGFR3 (P22607 whole entry, looked up): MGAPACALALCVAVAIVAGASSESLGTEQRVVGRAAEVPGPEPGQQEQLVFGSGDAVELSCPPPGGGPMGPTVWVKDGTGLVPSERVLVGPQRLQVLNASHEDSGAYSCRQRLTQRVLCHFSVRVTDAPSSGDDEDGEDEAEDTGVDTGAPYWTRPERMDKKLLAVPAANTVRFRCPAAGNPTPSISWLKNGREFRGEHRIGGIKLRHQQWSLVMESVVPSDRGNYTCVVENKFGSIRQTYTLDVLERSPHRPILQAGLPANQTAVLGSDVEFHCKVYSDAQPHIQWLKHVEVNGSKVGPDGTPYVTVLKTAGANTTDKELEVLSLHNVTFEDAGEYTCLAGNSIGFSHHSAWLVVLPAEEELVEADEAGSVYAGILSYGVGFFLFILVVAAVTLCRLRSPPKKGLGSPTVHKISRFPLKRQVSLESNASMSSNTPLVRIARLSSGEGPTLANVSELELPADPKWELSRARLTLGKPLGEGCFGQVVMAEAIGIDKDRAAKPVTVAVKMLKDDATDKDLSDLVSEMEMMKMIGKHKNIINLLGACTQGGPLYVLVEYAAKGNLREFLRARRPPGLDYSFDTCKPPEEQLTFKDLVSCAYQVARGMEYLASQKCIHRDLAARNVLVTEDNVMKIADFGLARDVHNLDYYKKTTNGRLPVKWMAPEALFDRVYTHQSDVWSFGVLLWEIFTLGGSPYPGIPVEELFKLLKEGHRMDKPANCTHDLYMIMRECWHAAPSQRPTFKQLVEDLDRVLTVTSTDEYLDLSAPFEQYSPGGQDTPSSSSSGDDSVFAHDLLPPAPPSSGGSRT

[8] = target: Fes (UniProt P07332); assay: as above
Chain of Fes (P07332 whole entry, looked up): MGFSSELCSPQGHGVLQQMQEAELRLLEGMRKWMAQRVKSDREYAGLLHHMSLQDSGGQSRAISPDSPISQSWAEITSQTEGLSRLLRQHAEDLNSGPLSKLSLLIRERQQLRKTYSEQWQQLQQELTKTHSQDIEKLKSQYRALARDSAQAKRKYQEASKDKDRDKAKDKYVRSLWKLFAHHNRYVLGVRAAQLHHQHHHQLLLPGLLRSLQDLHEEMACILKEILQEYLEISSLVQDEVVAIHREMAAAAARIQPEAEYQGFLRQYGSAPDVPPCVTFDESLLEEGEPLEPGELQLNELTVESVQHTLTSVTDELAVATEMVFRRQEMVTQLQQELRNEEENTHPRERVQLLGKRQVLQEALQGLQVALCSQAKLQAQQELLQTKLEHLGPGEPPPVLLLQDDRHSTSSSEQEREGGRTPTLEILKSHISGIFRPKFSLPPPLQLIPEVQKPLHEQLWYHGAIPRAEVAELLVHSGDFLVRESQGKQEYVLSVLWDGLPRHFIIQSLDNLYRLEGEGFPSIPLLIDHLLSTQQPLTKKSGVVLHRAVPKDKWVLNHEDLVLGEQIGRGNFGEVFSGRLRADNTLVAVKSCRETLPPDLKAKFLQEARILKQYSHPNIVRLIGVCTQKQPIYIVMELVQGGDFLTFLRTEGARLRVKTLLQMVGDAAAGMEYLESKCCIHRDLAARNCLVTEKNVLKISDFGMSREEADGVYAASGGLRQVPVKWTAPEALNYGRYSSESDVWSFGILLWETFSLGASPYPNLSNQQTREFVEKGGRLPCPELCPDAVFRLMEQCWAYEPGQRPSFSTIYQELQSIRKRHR

[9] = tested on: c-Abl (mouse); assay: as above
[10] = target: EPHB2 (UniProt P29323); assay: as above
Chain of EPHB2 (P29323 whole entry, looked up): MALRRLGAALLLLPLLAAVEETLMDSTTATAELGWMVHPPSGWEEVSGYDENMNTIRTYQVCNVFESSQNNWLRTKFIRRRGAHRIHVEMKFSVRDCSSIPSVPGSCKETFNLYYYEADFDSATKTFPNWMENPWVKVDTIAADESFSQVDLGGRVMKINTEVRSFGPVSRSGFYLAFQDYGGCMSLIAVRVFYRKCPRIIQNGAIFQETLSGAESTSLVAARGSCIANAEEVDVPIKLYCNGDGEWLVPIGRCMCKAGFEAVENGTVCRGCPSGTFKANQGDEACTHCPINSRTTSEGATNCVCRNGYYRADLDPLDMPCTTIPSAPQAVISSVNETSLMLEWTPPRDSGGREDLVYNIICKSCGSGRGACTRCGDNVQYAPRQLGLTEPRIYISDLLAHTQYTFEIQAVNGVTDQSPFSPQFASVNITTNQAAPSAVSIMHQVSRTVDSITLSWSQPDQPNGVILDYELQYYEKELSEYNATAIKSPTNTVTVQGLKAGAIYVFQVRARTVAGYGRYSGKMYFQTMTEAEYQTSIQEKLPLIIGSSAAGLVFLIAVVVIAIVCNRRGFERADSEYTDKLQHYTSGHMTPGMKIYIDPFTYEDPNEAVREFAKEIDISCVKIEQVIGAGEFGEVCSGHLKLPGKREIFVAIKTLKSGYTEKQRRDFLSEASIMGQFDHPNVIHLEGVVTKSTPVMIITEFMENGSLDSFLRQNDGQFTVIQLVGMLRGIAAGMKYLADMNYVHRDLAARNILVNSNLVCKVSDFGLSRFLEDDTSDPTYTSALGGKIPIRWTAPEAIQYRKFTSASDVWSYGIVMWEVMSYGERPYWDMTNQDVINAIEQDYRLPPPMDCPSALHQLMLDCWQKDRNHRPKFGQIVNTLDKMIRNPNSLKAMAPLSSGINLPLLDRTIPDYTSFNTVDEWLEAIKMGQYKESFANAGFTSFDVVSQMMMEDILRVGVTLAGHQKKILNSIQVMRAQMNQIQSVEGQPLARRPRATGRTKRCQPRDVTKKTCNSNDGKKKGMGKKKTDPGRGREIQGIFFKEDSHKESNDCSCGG

[11] = tested on: AncSZ; assay: as above
[12] = target: Fyn (UniProt P06241); assay: as above
Chain of Fyn (P06241 whole entry, looked up): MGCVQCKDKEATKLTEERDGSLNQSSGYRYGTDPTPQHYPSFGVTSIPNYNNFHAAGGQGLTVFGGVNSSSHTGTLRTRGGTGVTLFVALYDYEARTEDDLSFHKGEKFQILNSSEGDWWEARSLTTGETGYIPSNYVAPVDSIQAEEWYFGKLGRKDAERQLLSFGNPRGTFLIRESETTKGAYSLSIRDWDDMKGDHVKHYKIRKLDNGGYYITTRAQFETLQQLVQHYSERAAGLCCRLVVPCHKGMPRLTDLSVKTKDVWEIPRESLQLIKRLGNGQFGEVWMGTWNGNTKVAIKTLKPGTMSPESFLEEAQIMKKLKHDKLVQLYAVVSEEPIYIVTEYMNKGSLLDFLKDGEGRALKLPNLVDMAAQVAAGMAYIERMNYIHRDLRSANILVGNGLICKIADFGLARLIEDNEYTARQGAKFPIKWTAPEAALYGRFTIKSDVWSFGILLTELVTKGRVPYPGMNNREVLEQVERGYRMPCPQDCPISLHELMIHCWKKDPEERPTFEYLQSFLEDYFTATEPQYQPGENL

[13] = target: Jak2 (UniProt O60674); assay: as above
[14] = target: Hck (UniProt P08631); assay: as above
Chain of Hck (P08631 whole entry, looked up): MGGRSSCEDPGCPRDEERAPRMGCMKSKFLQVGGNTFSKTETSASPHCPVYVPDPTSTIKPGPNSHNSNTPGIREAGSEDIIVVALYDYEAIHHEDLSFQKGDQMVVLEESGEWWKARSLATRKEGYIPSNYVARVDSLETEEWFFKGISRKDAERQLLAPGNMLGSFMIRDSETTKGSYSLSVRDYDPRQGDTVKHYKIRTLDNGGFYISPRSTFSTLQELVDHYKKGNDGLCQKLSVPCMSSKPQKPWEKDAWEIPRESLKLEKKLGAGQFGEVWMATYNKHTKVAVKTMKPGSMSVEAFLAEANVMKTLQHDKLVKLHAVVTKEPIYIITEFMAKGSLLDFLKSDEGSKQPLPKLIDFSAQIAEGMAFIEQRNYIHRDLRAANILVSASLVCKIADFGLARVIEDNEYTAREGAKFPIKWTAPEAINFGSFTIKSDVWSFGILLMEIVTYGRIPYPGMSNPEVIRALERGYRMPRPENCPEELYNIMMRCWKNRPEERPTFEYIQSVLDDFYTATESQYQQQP

[15] = target: MERTK (UniProt Q12866); assay: as above
[16] = tested on: c-Src; assay: as above
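For SH2 binding enrichment of the phosphorylated peptide, bacterial display in this document: peptide library displayed on the E. coli surface as eCPX fusions, selected cells deep-sequenced, score is each peptide's frequency after selection divided by its frequency in the input.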
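For phosphorylation enrichment, bacterial display in this document: 11-residue human phosphosite peptides and single-mutation variants displayed on the E. coli surface, counted by deep sequencing, each peptide's frequency after selection divided by its frequency in the unselected input library; frequency after pTyr selection over input frequency; kinase dosed for 20-30% of maximal phosphorylation in three min.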

Chain of Grb2 SH2 (P62993 whole entry, looked up): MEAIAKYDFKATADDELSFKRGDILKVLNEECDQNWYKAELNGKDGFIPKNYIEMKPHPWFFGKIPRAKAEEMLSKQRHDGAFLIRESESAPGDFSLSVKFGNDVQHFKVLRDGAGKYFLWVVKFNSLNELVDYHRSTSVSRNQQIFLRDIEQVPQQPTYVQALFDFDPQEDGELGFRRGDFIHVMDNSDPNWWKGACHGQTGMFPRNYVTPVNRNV

Sequence | SH2 binding enrichment [1] | SH2 binding enrichment [2] | SH2 binding enrichment [3] | phosphorylation enrichment [4] | phosphorylation enrichment [5] | phosphorylation enrichment [6] | phosphorylation enrichment [7] | phosphorylation enrichment [8] | phosphorylation enrichment [9] | phosphorylation enrichment [10] | phosphorylation enrichment [11] | phosphorylation enrichment [12] | phosphorylation enrichment [13] | phosphorylation enrichment [14] | phosphorylation enrichment [15] | phosphorylation enrichment [16]
KSPDSYQKILL [ATM_Y1415] | 0.805 | 1.24 | 0.631 | 0.488 | 0.393 | 0.397 | 0.451 | 0.801 | 0.569 | 0.437 | 0.55 | 0.372 | 0.712 | 0.395 | 0.437 | 0.429
LLILEYAKFGS [RET_Y806_V804L_YF] | 2.19 | 1.21 | 1.76 | 0.85 | 0.699 | 1.49 | 1.38 | 1.52 | 0.635 | 0.991 | 1.34 | 1.01 | 1.15 | 0.901 | 0.585 | 0.976
SLYPGYNFRYA [P2RX7_Y291] | 0.91 | 0.666 | 0.672 | 0.44 | 0.498 | 0.423 | 0.57 | 0.685 | 0.477 | 0.604 | 0.63 | 0.413 | 0.495 | 0.529 | 0.399 | 0.378
KDQGTYEDFVE [MYL6_Y86_YF] | 0.509 | 1.46 | 0.247 | 0.906 | 0.911 | 0.569 | 1.35 | 2.32 | 1.97 | 0.59 | 1.31 | 0.616 | 1.94 | 0.966 | 1.12 | 1.31
SNMPTYSGHFS [GRIN2A_Y1224_T1229S] | 0.898 | 0.491 | 0.643 | 0.433 | 1.04 | 0.585 | 0.45 | 0.581 | 0.684 | 0.784 | 0.594 | 1.7 | 0.662 | 1.48 | 1.15 | 2.61
FSQNIYIQNRN [PKP2_Y631_YF] | 0.964 | 0.864 | 0.843 | 0.54 | 0.418 | 0.396 | 0.473 | 0.62 | 0.459 | 0.425 | 0.619 | 0.447 | 0.517 | 0.589 | 0.383 | 0.45
SLLTDYSPQLQ [OTC_Y345] | 0.708 | 0.517 | 0.918 | 0.447 | 0.453 | 0.459 | 0.546 | 0.796 | 0.483 | 0.508 | 0.776 | 0.45 | 0.788 | 0.48 | 0.381 | 0.372
IHADIYRWFNI [MARS1_Y344] | 1.65 | 1.19 | 1.17 | 9.43 | 8.95 | 0.716 | 6.99 | 1.42 | 6.74 | 0.6 | 1.22 | 2.23 | 1.12 | 2.14 | 5 | 3.77
IDDNEYAYLKA [HNF4A_Y286] | 0.863 | 0.467 | 0.545 | 1 | 0.507 | 0.507 | 0.868 | 0.991 | 0.571 | 0.601 | 1.24 | 0.564 | 0.849 | 0.707 | 0.423 | 0.677
SIRFNYLLDVL [FGFR4_Y237_YF] | 1.37 | 1.1 | 1.3 | 0.481 | 0.502 | 0.539 | 0.747 | 1.14 | 0.706 | 0.518 | 0.94 | 0.432 | 1 | 0.485 | 0.387 | 0.413
LQEKSYIKGTS [LCTL_Y331] | 1.41 | 0.546 | 1.1 | 1.15 | 0.96 | 0.652 | 1.08 | 1.21 | 0.723 | 1.02 | 1.33 | 0.616 | 0.595 | 0.912 | 0.609 | 0.9
TSSGGYRRTPS [ABI1_Y333] | 0.826 | 0.66 | 0.56 | 0.386 | 0.473 | 0.355 | 0.428 | 0.499 | 0.486 | 0.532 | 0.499 | 0.433 | 0.473 | 0.409 | 0.467 | 0.419
ALSDGYWVVSN [TPP1_Y459] | 0.823 | 9.23 | 0.879 | 1.32 | 0.398 | 0.475 | 1.1 | 1.01 | 0.71 | 0.518 | 1.19 | 0.44 | 1.79 | 0.635 | 0.372 | 0.516
ANNEYYFQVCA | 0.61 | 0.367 | 0.491 | 8.62 | 0.614 | 0.957 | 7.38 | 1.5 | 1.01 | 0.768 | 2.03 | 0.607 | 1.68 | 0.706 | 0.73 | 0.892
SIGLGYHKDLQ [NF1_Y1169] | 0.776 | 0.423 | 0.639 | 0.414 | 0.368 | 0.34 | 0.486 | 0.536 | 0.487 | 0.629 | 0.528 | 0.427 | 0.548 | 0.424 | 0.381 | 0.458
DNACQYMLTDR [MYH7_Y164_Y162C] | 0.859 | 0.814 | 0.866 | 0.614 | 0.523 | 0.6 | 0.691 | 1 | 0.766 | 0.612 | 1.02 | 0.571 | 0.959 | 0.567 | 0.532 | 1.24
ARMTNCGLPRF [TSPAN12_Y138_Y138C_YF] | 1.06 | 0.74 | 1 | 0.387 | 0.352 | 0.292 | 0.453 | 0.689 | 0.591 | 0.421 | 0.58 | 0.322 | 0.492 | 0.358 | 0.368 | 0.323

— the supplement of paper PMC10065799, “High-throughput profiling of sequence recognition by tyrosine kinases and SH2 domains using bacterial peptide display” (eLife, 2023)
